Experimental data from the supplement of paper PMC9112550, “Optimization of the antimicrobial peptide Bac7 by deep mutational scanning” (BMC Biology, 2022).

Test system: Escherichia coli TOP10
Experiment: shrunken log2 fold change of peptide-encoding DNA abundance (4.5 h post-induction vs induction); higher = less antimicrobial activity (less host growth inhibition)
Conditions: time post-induction: 4.5 h; library: site-saturation at positions 5, 18, 19, 20
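Note: peptides expressed intracellularly from a pBAD plasmid library in pooled LB shake-flask culture, induced with 0.3% L-arabinose, DNA abundance read by NGS, three biological replicates, DESeq2 with apeglm shrinkage.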

Sequence	shrunken log2 fold change
RRIRSRPPRLPRPRPRPHFEPRP	-0.325
RRIRFRPPRLPRPRPRPDFRPRP	0.00564
RRIRPRPPRLPRPRPRPMYAPRP	-0.302
RRIRHRPPRLPRPRPRPIVNPRP	0.114
RRIRFRPPRLPRPRPRPQKFPRP	-0.259
RRIRGRPPRLPRPRPRPWSAPRP	0.232
RRIRPRPPRLPRPRPRPMNLPRP	0.00249
RRIRDRPPRLPRPRPRPGRGPRP	0.725
RRIRARPPRLPRPRPRPWHCPRP	-0.16
RRIRIRPPRLPRPRPRPNKFPRP	-0.992
RRIRVRPPRLPRPRPRPYYTPRP	-1.39
RRIRCRPPRLPRPRPRPADEPRP	0.431
RRIRVRPPRLPRPRPRPWGWPRP	0.331
RRIRLRPPRLPRPRPRPAQHPRP	-0.132
RRIRYRPPRLPRPRPRPWGQPRP	0.00911
RRIRFRPPRLPRPRPRPMKPPRP	-0.0229
RRIRGRPPRLPRPRPRPTRLPRP	0.939
RRIRRRPPRLPRPRPRPSTKPRP	0.068
RRIRQRPPRLPRPRPRPDELPRP	-0.0583
RRIRGRPPRLPRPRPRPNEGPRP	0.0414
RRIRKRPPRLPRPRPRPNLMPRP	3.86
RRIRKRPPRLPRPRPRPSDCPRP	-0.00471
RRIRCRPPRLPRPRPRPHCRPRP	-0.0478

Sequence	shrunken log2 fold change
RRIRCRPPRLPRPRPRPTKLPRP	-0.132
RRIRTRPPRLPRPRPRPLLCPRP	-0.413
RRIRCRPPRLPRPRPRPRIYPRP	-0.0107
RRIRERPPRLPRPRPRPGNYPRP	-0.264
RRIRLRPPRLPRPRPRPNQMPRP	-0.437
RRIRKRPPRLPRPRPRPAAEPRP	1.12
RRIRKRPPRLPRPRPRPGIDPRP	0.792
RRIRGRPPRLPRPRPRPNQDPRP	0.0491
RRIRLRPPRLPRPRPRPMVHPRP	0.012
RRIRFRPPRLPRPRPRPYSTPRP	0.0586
RRIRARPPRLPRPRPRPTDRPRP	0.0653
RRIRVRPPRLPRPRPRPFCSPRP	0.0261
RRIRSRPPRLPRPRPRPSHLPRP	-0.265
RRIRCRPPRLPRPRPRPKDVPRP	0.015
RRIRIRPPRLPRPRPRPMYDPRP	-0.726
RRIRQRPPRLPRPRPRPMDIPRP	-0.155
RRIRTRPPRLPRPRPRPLLIPRP	-0.0383
RRIRMRPPRLPRPRPRPADPPRP	0.36
RRIRMRPPRLPRPRPRPIYAPRP	1.86
RRIRGRPPRLPRPRPRPRPNPRP	0.64
RRIRERPPRLPRPRPRPPWIPRP	-0.042
RRIRKRPPRLPRPRPRPGFIPRP	-0.307
RRIRDRPPRLPRPRPRPEEWPRP	0.0446

Sequence	shrunken log2 fold change
RRIRHRPPRLPRPRPRPLENPRP	0.00854
RRIRPRPPRLPRPRPRPPAKPRP	0.657
RRIRFRPPRLPRPRPRPRSWPRP	0.135
RRIRKRPPRLPRPRPRPWFTPRP	-0.00863
RRIRLRPPRLPRPRPRPCFIPRP	0.554
RRIRFRPPRLPRPRPRPDYQPRP	-0.268
RRIRDRPPRLPRPRPRPPLFPRP	0.5
RRIRARPPRLPRPRPRPFNTPRP	-0.189
RRIRARPPRLPRPRPRPDEFPRP	0.331
RRIRSRPPRLPRPRPRPIAMPRP	-0.127
RRIRYRPPRLPRPRPRPAYHPRP	-0.321
RRIRGRPPRLPRPRPRPRAAPRP	1.53
RRIRTRPPRLPRPRPRPIGGPRP	-0.000462
RRIRARPPRLPRPRPRPECLPRP	0.909
RRIRIRPPRLPRPRPRPRVWPRP	0.618
RRIRIRPPRLPRPRPRPDDAPRP	-0.319
RRIRNRPPRLPRPRPRPKISPRP	-0.484
RRIRGRPPRLPRPRPRPCGWPRP	1.34
RRIRQRPPRLPRPRPRPNNAPRP	-0.216
RRIRARPPRLPRPRPRPTQNPRP	1.05
RRIRDRPPRLPRPRPRPKLQPRP	0.08
RRIRIRPPRLPRPRPRPATSPRP	-0.273
RRIRTRPPRLPRPRPRPTLTPRP	0.0461

Sequence	shrunken log2 fold change
RRIRHRPPRLPRPRPRPQQGPRP	-0.14
RRIRQRPPRLPRPRPRPHDYPRP	-0.00281
RRIRMRPPRLPRPRPRPSSQPRP	0.212
RRIRYRPPRLPRPRPRPWPIPRP	0.044
RRIRHRPPRLPRPRPRPECGPRP	0.322
RRIRVRPPRLPRPRPRPIFQPRP	-0.052
RRIRDRPPRLPRPRPRPKQRPRP	0.314
RRIRDRPPRLPRPRPRPDRTPRP	0.0519
RRIRNRPPRLPRPRPRPPSAPRP	0.726
RRIRGRPPRLPRPRPRPVRCPRP	0.814
RRIRPRPPRLPRPRPRPLPAPRP	0.864
RRIRGRPPRLPRPRPRPWGGPRP	0.808
RRIRHRPPRLPRPRPRPVSTPRP	-0.263
RRIRFRPPRLPRPRPRPCEIPRP	-0.348
RRIRLRPPRLPRPRPRPCFVPRP	-0.392
RRIRLRPPRLPRPRPRPLKAPRP	-0.153
RRIRCRPPRLPRPRPRPNYYPRP	-0.868
RRIRLRPPRLPRPRPRPTMHPRP	0.0766
RRIRIRPPRLPRPRPRPEKKPRP	-0.0556
RRIRKRPPRLPRPRPRPRHPPRP	0.412
RRIRVRPPRLPRPRPRPFCGPRP	-0.0559
RRIRCRPPRLPRPRPRPGVEPRP	0.0401
